{
  "source": "patent US20190169269",
  "proteins": {"B1": {"name": "recombinant human MMP-12 (protein)", "chain": "GPVWRKHYITYRINNYTPDMNREDVDYAIRKAFQVWSNVTPLKFSKINTGMADILVVFARGAHGDFHAFDGKGGILAHAFGPGSGIGGDAHFDEDEFWTTHSGGTNLFLTAVHEIGHSLGLGHSSDPKAVMFPTYKYVDINTFRLSADDIRGIQSLYGDPKENQRLPNPDNSEPALCDPNLSFDAVTTVGNKIFFFKDRFFWLKVSERPKTSVNLISSLWPTLPSGIEAAYEIEARNQVFLFKDDKYWLISNLRPEPNYPKSIHSFGFPNFVKKIDAAVFNPRFYRTYFFVDNQYWRYDERRQMMDPGYPKLITKNFQGIGPKIDAVFYSKNKYYYFFQGSNQFEYDFLLQRITKTLKSNSWFGC"}},
  "key": {"[1]": {"target": "T1, Elactiv′ polypeptide (polypeptide derived from tropoelastin, Cys-Flag-tagged)", "T1 chain": "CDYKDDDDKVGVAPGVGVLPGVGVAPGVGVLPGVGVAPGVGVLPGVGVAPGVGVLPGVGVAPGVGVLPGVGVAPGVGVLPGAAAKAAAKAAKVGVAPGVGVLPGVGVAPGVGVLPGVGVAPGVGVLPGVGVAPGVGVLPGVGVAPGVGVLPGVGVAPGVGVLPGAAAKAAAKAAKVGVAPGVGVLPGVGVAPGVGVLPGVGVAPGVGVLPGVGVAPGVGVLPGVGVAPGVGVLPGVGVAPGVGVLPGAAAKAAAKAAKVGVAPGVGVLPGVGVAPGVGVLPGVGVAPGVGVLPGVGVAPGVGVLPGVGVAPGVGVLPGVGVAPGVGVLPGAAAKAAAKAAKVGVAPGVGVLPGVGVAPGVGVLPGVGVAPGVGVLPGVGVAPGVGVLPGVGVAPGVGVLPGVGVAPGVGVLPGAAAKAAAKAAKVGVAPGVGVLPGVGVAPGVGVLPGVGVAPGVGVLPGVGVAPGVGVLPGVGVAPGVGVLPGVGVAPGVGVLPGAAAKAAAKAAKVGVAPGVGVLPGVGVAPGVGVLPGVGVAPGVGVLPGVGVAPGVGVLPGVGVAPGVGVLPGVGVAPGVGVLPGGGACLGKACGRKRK"}, "[2]": {"target": "T2, recombinant human tropoelastin (hTE) (Sigma-Aldrich), P15502", "T2 chain": "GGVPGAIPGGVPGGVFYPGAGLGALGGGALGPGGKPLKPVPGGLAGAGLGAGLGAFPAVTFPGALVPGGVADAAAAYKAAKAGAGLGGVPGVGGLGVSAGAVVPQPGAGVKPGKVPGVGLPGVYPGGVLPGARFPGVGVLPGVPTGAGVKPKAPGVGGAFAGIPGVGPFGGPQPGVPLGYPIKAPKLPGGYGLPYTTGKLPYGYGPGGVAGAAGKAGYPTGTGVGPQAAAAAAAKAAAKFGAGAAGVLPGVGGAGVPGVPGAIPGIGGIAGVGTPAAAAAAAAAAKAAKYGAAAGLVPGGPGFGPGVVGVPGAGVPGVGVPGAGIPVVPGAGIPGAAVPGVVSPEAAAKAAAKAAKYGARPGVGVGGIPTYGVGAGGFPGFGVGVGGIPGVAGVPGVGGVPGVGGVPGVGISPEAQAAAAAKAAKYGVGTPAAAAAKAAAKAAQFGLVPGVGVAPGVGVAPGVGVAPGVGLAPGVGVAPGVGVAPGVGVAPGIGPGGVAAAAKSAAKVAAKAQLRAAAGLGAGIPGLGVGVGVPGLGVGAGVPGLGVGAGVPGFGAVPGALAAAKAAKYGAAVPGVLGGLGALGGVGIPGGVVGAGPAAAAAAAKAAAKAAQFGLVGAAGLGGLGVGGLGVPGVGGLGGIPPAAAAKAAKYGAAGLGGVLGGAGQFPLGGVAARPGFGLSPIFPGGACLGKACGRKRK"}},
  "data": [
    {"protein": "B1", "values": [
      {"measurement": "kinetics of degradation by rhMMP-12, Western blot", "setting": "[1]", "result": "Elactiv′ is progressively degraded by MMP-12, but to a lesser extent than human tropoelastin"},
      {"measurement": "kinetics of degradation by rhMMP-12, Western blot", "setting": "[2]", "result": "Elactiv′ is progressively degraded by MMP-12, but to a lesser extent than human tropoelastin"}
    ]}
  ]
}
